# Source: the DeepSol protein solubility set
# Test: soluble on expression in E. coli; label from the status in PepcDB or PDB records
row,Sequence,soluble on expression in E. coli
1,FAKLVRPPVQIYGIEGRYATALYSAASKQNKLEQVEKELLRVGQILKEPKMAASLLNPYVKRSVKVKSLSDMTAKEKFSPLTSNLINLLAENGRLTNTPAVISAFSTMMSVHRGEVPCTVTTASALDETTLTELKTVLKSFLSKGQVLKLEVKIDPSIMGGMIVRIGEKYVDMSAKTKIQKLSRAMREIL,soluble
2,MVSKRTKESIRNLNIFKGLELCIHISESVSYRVSKNRTVIFIISIGYKGVTVSKGPTYQERFTFTTQKFNAKSCLNHFLYVINPTKIDDLHFSIITGTFDDPKIQMAVECLKGLRVVNLNTPILSNTKTLAELVKTFEPTEHLKIHRYPFQTLGFAQLFQLREILPGKFPILSLNINMPLNGLLLTSSSSVGVNNNRLLTSKDFNIFLKHWIAGLKPELECIRILDYRLDWNEHTVLKGIPYEVAPMETKIKFRRKEELQLGGFDFTMSSGVKATLHFHYWDRVPITEISVVLHDSEIITFL,not soluble
3,MANTGCLSPGAFLSKVPEFFQTANEKHITVRLTAKRLIEHDPVEGNLEFDSTNHPDYDVSKKASEISVSSRSDREYPLLIRMSYGSHDKKTKCSTVVKASELDQFWQEYSSVFKGGMQNLIKKKKKKSKNGTISKTGKKNKVAKKN,not soluble
4,MSLRVFVCGCVHGSWDIVVDEVNKLVENGTKLDLIIVAGDLEAFITESDLLSYKRPNGTQGFGSFHKIANGEKHLPCKMLVIGGNNESTDIIFQLPFGGWITPDVYFAGRASQIYFGDLLITCTSGVYNVKNYWKKVYEHFPVRKKECYSVNHTRAFSNFQVYGLTQLNIFVTHDWPSGIPKMFRDIIPKKSLVDSDDSNDFGMQDYRKILEKKQPKYWFAAHHHIKFECEPNPGTKFIAVPRVIQDNWYSLQTFDEKPGDFMISGEWINILKKTEEYMKDPSVLKDIDWDEEWTKINSLPSADLPIKVPVMEYNNDYKVQTAKFCETYGIYNPNEGHHHHHH,soluble
5,MTLTELRYIVAVAQERHFGRAARRCFVSQPTLSIAIKKLEEELAVSLFDRSSNDIITTEAGERIVAQARKVLEEAELIRHLANEEQNELEGAFKLGLIFTVAPYLLPKLIVSLRRTAPKMPLMLEENYTHTLTESLKRGDVDAIIVAEPFQEPGIVTEPLYDEPFFVIVPKGHSFEELDAVSPRMLGEEQVLLLTEGNCMRDQVLSSCSELAAKQRIQGLTNTLQGSSINTIRHMVASGLAISVLPATALTENDHMLFSIIPFEGTPPSRRVVLAYRRNFVRPKALSAMKAAIMQSQLHGVSFICD,soluble
6,ATAAQAERTLPKKYGGRFTVTLIPGDGVGKEITDSVRTIFEAENIPIDWETINIKQTDHKEGVYEAVESLKRNKIGLKGLWHTPADQTGHGSLNVALRKQLDIYANVALFKSLKGVKTRIPDIDLIVIRENTEGEFSGLEHESVPGVVESLKVMTRPKTERIARFAFDFAKKYNRKSVTAVHKANIMKLGDGLFRNIITEIGQKEYPDIDVSSIIVDNASMQAVAKPHQFDVLVTPSMYGTILGNIGAALIGGPGLVAGANFGRDYAVFEPGSRHVGLDIKGQNVANPTAMILSSTLMLNHLGLNEYATRISKAVHETIAEGKHTTRDIGGSSSTTDFTNEIINKLSTMHHHHH,soluble
7,MGKILVLSDIHYPYCDIDEINKIMLSERPSLTVLLGDIIVSKSEDYRNFIDKLKIRKNIIYVKGDEDKFRGDFDLIKIKNNGKRFILLHGHQYFNENNEYSLAKVLKKMNDNIPPLLFCIFFRIMLRNFKDTIILGHSHAL,soluble
8,MLKYNVRGENIEVTDALRSYVEKRLNKLEKYFELNQDVIAHVNLRVYRDHSAKVEVTIPLPYLVLRAEETTDDMYRSIDFVSEKLERQIRKYKTRVNRKSREKGLQDFFVEQPEEEKKPSEFDIVRNKRVSLKPMDPEEAILQMDMLEHDFFVFEDAETNGTSVVYRRNDGRYGLIETNELEHHHHHH,soluble
9,MPIHSLSLAGFRSIRKLTLELDALNVVVGANGCGKSNLYKSIQLLHAAAEGGLSAALAAEGGAQKAMWAGGTRRGDKARVPKRMILSARLDDYDYELQLGYPEPSCSLFALDPLVKEESLWLAGHGRRPSTLLLERRNQAAFLCGVEGERNSYPASLRAEESLFGQLAEPHRYPELSQVRETLRNWRFYHEFAIWPGSPLRAPQVGIRSPVLAHDGANLAAAFQTIVEIGDHELLHSVLTDAFPDSRFLVDAQQGRFQMLMRRDGLLRPLEAAELSDGTLRFLCLAVALLSPRPPAFMALNEPENSLHPALLPALARLIAEASRHSQLWVTSHSPELAERIRRHRPLKTFQLSLRDGETVLQDDLEHHHHHH,not soluble
10,MSLTFLTGVPGFLGTRLLRRLAAAAPDRSFLLLVQPKFEGRTHTLLADRGLADRATVLPGDITEPDLGLGAHYDAVAEQITRAVHLAAVYDLTIPREVGWQVNVEGTRHVLDLLAQCPSLERFGYVSSAYVSGERTGTIHEDELVHEAGFKNFYEETKYHAEVLVQDRMDEIPTLVFRPSIVVGDSETGATDKFDGVYFVLNALRSLPRYTPMTRIGSGTEPVNLVPVDFVVDAMGHLLGTEGHAGTVFHLTDPRPLTAQAIMELLADLLDKRVAYVPVPPGLARAMMKTGVGRALGLAPELIDYFDHPSHYDASNTRAALDGTGIDCPFLPDYAPAMVAYARRHDARSSAMYEGHHHHHH,not soluble
11,LQASVNLFPTISVAPSADTSSERSIYKARFLENVAAAETEKQVALAQGRAETLAGAMPNEAGGHPDARQLWDSPETAPAARTPQSPAPCVLLRAQRSLAPEPKEPLIPASPKAEPIWELPTRAPRLSIGDLDFSDLGEDEDQDMLNVESVEAGKDI,not soluble
12,MSLGEQTTISDSKGLFHKEFPYVIPPVYRKVLDEYLVELNLLSNQSNFKIDTIFSYGLIISFERFTVGYEPDSHISKILESLCNSCNIDIKAIKEYSNNIKKLINEKGIKEIINILTAEIKKSVGGIALSNQSGKDKYYSRLHAIGIYELISNINEDKKEGDDKEIISECVEALGFSKDRVEKDINQYKNSMEKIKEMMELIKLTVEETKRKAKLNEGHHHHHH,soluble
13,MTEIQTIRKKVEQQITSLQNETDEIAEFNQAKVLDAFQENKVSDFHFNPSTGYGYDDEGRDTLERVYASVFKTEAALVRPQIISGTHAISTVLFGILRPGDELLYITGEPYDTLEEIVGIRSEGQGSLKDFQIGYDAVPLLPNGEIDYPAVSKKISANTKMIGIQRSRGYADRPSFTIEKIKEMVTFVKNINPNIIVFVDNCYGEFVERIEPTEVGADIIAGSLIKNPGGGLAKTGGYIAGRNTLVDLCGYRLTTPGIGREAGASLYSLLEMYQGFFLAPHVTAQAIKGARFTAAMLAEFGVEADPLWDAKRTDLIQSVSFHSKDKMIAFAQAIQAASPVNAHVLPIGAYMPGYEDDVIMAAGTFIQGASLELTADGPIREPYQLYVQGGLTYEHVKIAVTRAIENSLLEHHHHHH,soluble
14,MKQRPIPRPQTDTTAALQALADALACLRNSATVLAFLRDLCTPAELEALADRWRVVPLLLQGRPYRDIHDHTGISVTTIGRVARCLEHGTGGYAAVLQAQAMPPASSIEKPQ,not soluble
15,MKVRRTEQIYLKENDTISYMCHLSKNLYNQVNYILRQQFLKGEKLTGYRDLVKLFQEPSEIEDHNNYQRLPAQTAQWTVKKTVMAWYSFFKSMKAWKKHPDKFKGRPRLPGYKETDGEFLLVFTNQQCRIRDGILKFPKIMNMEVKTRLNENEIKLKEVRIVPQGTGYMIEIVYEKETADMPITKPKRAMGIDIGVRNLVTIGNNIHEIGIAVKAGLLKSINQYFNKELARYRSINDLQGNERKQTVKIRKLFMKRNRKVKDIMHKVSKSIVEYAKIMNIDTIVIGHNNRWKDSSNMGKKNNQNFVQLPFNMLIYQIKYKAEEIGITVIMQNEDYTSKCSFLDNESIEHHDTYMGKRIHRGIFRSATGKLIHADLQSSYNIIKKAIPEAFANGIEGIGLYPRSLSIRQMITSKGGCLEHHHHHH,not soluble
16,MSLESVQNYEAKSAHAHQAFFLKFEELKEVSKEQPRLEAEYPANTTKNYDHSRVRLTQLEGEPHSDYINANLVPGYTRPQEFIASQGPLKKTLENFWRLVREQQVRIIIMPTISMENGRVLCEHYWLTDSTPDTHGHITIHLLAEEPEDEWTKREFQLQHLLRGCPCGVGMGRTGTFVALSRLLQQLEEEQMVDVFHAVYALRMHQPLMIQTLSQYVFLHSCLLNKILEGPFNISESWPISVTDLPQACAKRAASANAGFLKEYEAIKDEAGFSAPPPGYEQDSPVSYDRSQGQFSPVEESPPDDMPEAWLFPGGPSGRDHTVLTGPAGPKELWELVWQHRAHVLVSLCPPNVMEKGESRKEREVQRLQFPYLEPGHELPATTLLPFLAAVGQCCSRGNNKKPGTLLSHSKCCWTMVSCSKGATQLGTFLAMEQLLQQAGSECTVDIFNVALQQSQACGLMTPTLITQQCLLLSDCTAPPPTEGHHHHHH,not soluble
17,MKRIQEIQQNLERLAEMDEHLEQCEEWNVVAQEIVQKLSTIRKEVERSAAPTPLLLTPPGSCGSGSIYSDISSEMTNVYTEAVEAYDQQIYSRCVRLVEGANRESPVDMCLISLAHHSYAEMVNAASGSDDAMKFAKWWAEFLDSVEAGRGHSEKIELLDYEAVAYEKIVKLGGVADVEKLIEVVVRSYEMVTLLNRPYHILSLQKLFRLTNVLSSSEVDLESDAFSSAKTVVLTGIQNVLRDRKKFAQLGKFNEHNMKIAMRRTAQPDFRVRYCEKR,soluble
18,MKMMDANEIISFIQKSEKKTPVKVYIKGDLKEVTFPETVQAFVNKKSGVLFGEWSEIKTILDENSKYIVDYVVENDRRNSAIPMLDLKGIKARIEPGAIIRDHVEIGDNAVIMMNATINIGAVIGEGSMIDMNAVLGGRATVGKNCHVGAGAVLAGVIEPPSAKPVIVEDDVVIGANVVVLEGVTVGKGAVVAAGAVVTEDVPPYTVVAGTPARVIKEIDEKTKAKTEIKQELRQLNPEK,not soluble
19,MSVELRDATVDDLSGIMEIYNDAVVNTTAIWNEVVVDLENRKDWFAARTSRGFPVIVAILDGKVAGYASYGDWRAFDGYRHTREHSVYVHKDARGHGIGKRLMQALIDHAGGNDVHVLIAAIEAENTASIRLHESLGFRVVGRFSEVGTKFGRWLDLTCMELKLG,not soluble
20,MLIPSKLSRPVRLDHTVVRERLLAKLSGANNFRLALVTSPAGYGKTTLVSQWAAGKNELGWYSLDEGDNQQERFASYLIAAIQQATGGHCSTSEAMAQKRQYASLTSLFAQLFIELAQWHRPLYLVIDDYHLITNPVIHDAMRFFLRHQPENFTLVVLSRNLPQLGIANLRVRDQLLEIGSQQLAFNHQEAKQFFDRRLSSPIEAAESSRMCDDVAGWATALQLIALSARQNHTSAHHSARRLAGINASHLSDYLVDEVLDNVDVSTRHFLLKSAILRSMNDALIVRVTGEENGQMRLEEIERQGLFLQRMDDTGEWFSYHPLFGSFLRQRCQWELAAELPEIHRAAAESWMEQGFPSEAIHHALAAGDAQMLRDILLNHAWGLFNHSELALLEESLKALPWESLLENPRLVLLQAWLMQSQHRYSEVNTLLARAEQEIKGVMDGTLHAEFNALRAQVAINDGNPEEAERLAKLALDELPLAWFYSRIVATSVHGEVLHCKGDLSQSLSLMQQTEQMARHHDVWHYALWSLIQQSEIQFAQGFLQAAWETQERAFQLIKEQHLEQLPMHEFLVRIRAQLLWAWARLDEAEASARSGIAVLSTFQPQQQLQCLTLLVQCSLARGDLDNARSQLNRLENLLGNGRYHCDWISNADKVRVIYWQLTGDKKSAANWLRHTPKPAFANNHFLQGQWRNIARAQILLGEFEPAEIVLEELNENARSLRLMSDLNCNLLLLNQLYWQSGRKNDAQRVLLDALQLANRTGFISHFVIEGEAMAQQLRQLIQLNTLPEMEQHRAQRILREINQHHRHKFAHFDEGFVERLLNHPDVPELIRTSPLTQREWQVLGLIYSGYSNEQIAGELAVAATTIKTHIRNLYQKLGVAHRQDAVQHAQQLLKMMGYGV,not soluble
